According to article PMC3471927, “The PduQ Enzyme Is an Alcohol Dehydrogenase Used to Recycle NAD^+ Internally within the Pdu Microcompartment of Salmonella enterica” (PLoS ONE, 2012):

What was measured:
PduP = molecular target: T1, PduP (Salmonella enterica, UniProt Q9XDN1); assay: thioester formation at […] nm in purified Pdu MCPs; assay type: biochemical; settings: 10 mM propionaldehyde, 200 mM 1,2-propanediol, 40 µM NAD+, 100 µM HS-CoA, 100 mM sodium phosphate pH 7.0
T1 construct: native PduP within anaerobically purified Pdu microcompartments (wild-type and pduQ deletion strain BE903)

purified protein [1] = substrate: CCC=O; assay: purified protein; assay type: biochemical, Salmonella enterica; settings: 0.4 mM NADH, 100 mM sodium phosphate pH 7.0, anaerobic; pH 7.0
purified protein [2] = substrate: CCCO; assay: purified protein; assay type: biochemical, Salmonella enterica; settings: 2 mM NAD+, 100 mM Tris-HCl pH 9.0, anaerobic; pH 9.0
purified protein [3] = substrate: NC(=O)C1=CN([C@@H]2O[C@H](COP(=O)(O)OP(=O)(O)OC[C@H]3O[C@@H](n4cnc5c(N)ncnc54)[C@H](O)[C@@H]3O)[C@@H](O)[C@H]2O)C=CC1; assay: purified protein; assay type: biochemical, Salmonella enterica; settings: 150 mM propionaldehyde, 100 mM sodium phosphate pH 7.0, anaerobic; pH 7.0
purified protein [4] = substrate: NC(=O)c1ccc[n+]([C@@H]2O[C@H](COP(=O)(O)OP(=O)(O)OC[C@H]3O[C@@H](n4cnc5c(N)ncnc54)[C@H](O)[C@@H]3O)[C@@H](O)[C@H]2O)c1; assay: purified protein; assay type: biochemical, Salmonella enterica; settings: 800 mM 1-propanol, 100 mM Tris-HCl pH 9.0, anaerobic; pH 9.0

T1 sequence (Q9XDN1 whole entry): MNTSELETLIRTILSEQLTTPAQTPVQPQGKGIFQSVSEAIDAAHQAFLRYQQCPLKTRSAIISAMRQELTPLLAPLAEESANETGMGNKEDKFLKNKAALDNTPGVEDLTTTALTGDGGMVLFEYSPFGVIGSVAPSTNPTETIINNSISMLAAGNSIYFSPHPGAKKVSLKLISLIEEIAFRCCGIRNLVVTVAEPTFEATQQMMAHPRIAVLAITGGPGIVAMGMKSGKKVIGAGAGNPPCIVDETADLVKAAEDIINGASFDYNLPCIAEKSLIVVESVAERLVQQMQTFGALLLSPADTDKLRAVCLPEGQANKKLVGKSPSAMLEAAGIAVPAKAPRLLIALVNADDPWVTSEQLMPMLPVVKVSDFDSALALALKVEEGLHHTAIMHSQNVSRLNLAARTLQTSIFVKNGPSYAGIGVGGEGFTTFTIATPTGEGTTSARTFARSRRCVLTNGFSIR

Molecule | thioester formation at 232 nm in purified Pdu MCPs (PduP) | Km (purified protein [1]) | Vmax (purified protein [1]) [µmol/min/mg] | kcat (purified protein [1]) [s⁻¹] | kcat/Km (purified protein [1]) [M⁻¹ s⁻¹] | Km (purified protein [2]) | Vmax (purified protein [2]) [µmol/min/mg] | kcat (purified protein [2]) [s⁻¹] | kcat/Km (purified protein [2]) [M⁻¹ s⁻¹] | Km (purified protein [3]) [µM] | Vmax (purified protein [3]) [µmol/min/mg] | kcat (purified protein [3]) [s⁻¹] | kcat/Km (purified protein [3]) [M⁻¹ s⁻¹] | Km (purified protein [4]) [µM] | Vmax (purified protein [4]) [µmol/min/mg] | kcat (purified protein [4]) [s⁻¹] | kcat/Km (purified protein [4]) [M⁻¹ s⁻¹]
NC(=O)c1ccc[n+]([C@@H]2O[C@H](COP(=O)(O)OP(=O)(O)OC[C@H]3O[C@@H](n4cnc5c(N)ncnc54)[C@H](O)[C@@H]3O)[C@@H](O)[C@H]2O)c1 [NAD^+] | no measureable PduP activity without added HS-CoA, NAD^+ or propionaldehyde |  |  |  |  |  |  |  |  |  |  |  |  |  |  |  | 
CCC=O [propionaldehyde] | no measureable PduP activity without added HS-CoA, NAD^+ or propionaldehyde |  |  |  |  |  |  |  |  |  |  |  |  |  |  |  | 
PduQ-His6 (Salmonella enterica subsp. enterica serovar Typhimurium str. LT2) (protein, full length, C-terminal His6 kept, pET-41a in E. coli BL21(DE3) RIL, anaerobic Ni-NTA) MNTFSLQTRLYSGQGSLAVLKRFTNKHIWIICDGFLAHSPLLDTLRNALPADNRISVFSEITPDPTIHTVVQGIAQMQALQPQVVIGFGGGSAMDAAKAIVWFSQQSGINIETCVAIPTTSGTGSEVTSACVISDPDKGIKYPLFNNALYPDMAILDPELVVSVPPQITANTGMDVLTHALEAWVSPRASDFTDALAEKAAKLVFQYLPTAVEKGDCVATRGKMHNASTLAGMAFSQAGLGLNHAIAHQLGGQFHLPHGLANALLLTTVIRFNAGVPRAAKRYARLAKACGFCPAEANDIAAINALIQQIELLKQRCVLPSLAVALKEGRSDFSARIPAMVQAALADVTLRTNPRPANAEAIRELLEELL |  | (16.0±2.0)×10^3 µM | 81.3 | 54.6 | 3410 | (95.8±9.2)×10^3 µM | 8.4 | 5.64 | 58.9 | 45.3 ± 5.3 | 77.7 | 52.2 | 1.15e+06 | 267.5 ± 22.3 | 9.2 | 6.18 | 23100
